Data from patent US20210309735A1 (published 2021).

T1: mouse IL-17A (mouse, UniProt Q62386 26-158, limits assumed)
T1 sequence (looked up): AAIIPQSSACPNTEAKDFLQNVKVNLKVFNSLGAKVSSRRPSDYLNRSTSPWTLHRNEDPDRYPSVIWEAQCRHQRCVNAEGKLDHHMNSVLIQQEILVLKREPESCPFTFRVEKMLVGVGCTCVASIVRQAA

T2: human IL-17A (human, UniProt Q16552 20-155, limits assumed)
T2 construct: Bought from R&D Systems; also called IL-17 antigen (human IL17A)
T2 sequence (looked up): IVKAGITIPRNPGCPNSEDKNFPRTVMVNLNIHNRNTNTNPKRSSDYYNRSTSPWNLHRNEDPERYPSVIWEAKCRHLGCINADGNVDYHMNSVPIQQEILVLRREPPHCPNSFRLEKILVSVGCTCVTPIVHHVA


How the values were obtained:
mouse IL-17A = target: T1, mouse IL-17A; assay: ELISA, mouse IL-17A coated
human IL-17A [1] = target: T2, human IL-17A; assay: ELISA, human IL-17A coated at 1 ug/mL, anti-human IgG-HRP detection
Procedure: ELISA plates were coated with 1 μg/mL IL-17 antigen (human IL17A) (R&D Systems) and incubated at 4° C. in the dark overnight. Then it was washed once with 10 mM, pH 7.4 PBS/Tween (0.05%), blocked with PBST containing 2% BSA for 1 hour and incubated at room temperature for 1 h. The antibodies PP10759-PP10768 were diluted in 5-fold increments for a total of eleven data points and were added to the ELISA wells and incubated at room temperature for 1 hour. The plate was washed with PBS for three times, and then incubated with HRP conjugated goat anti-human IgG antibody for 1 hour. The plate was washed three times with PBS. TMB, the HRP substrate, was added to each well for color development for 5 minutes at room temperature. Equal amount of 0.1N HCl stop solution was added to each well to terminate the reaction. Raw OD₄₅₀ data was collected by POLARstar Omega (BMG Labtech). Besides, hFc isotope was regarded as control. It can be seen that the antibodies (i.e. PP10759-PP10768) bind to human IL-17A with high affinity.

human IL-17A [2] = target: T2, human IL-17A; assay: BLI (Octet Red96), antibody captured on AHC biosensor, human IL-17A in solution, 1:1 model, 25 C
Procedure: Using the Octet method (Fortebio Octet®), the chimeric parental antibody and the […] (i.e. PP10759-PP10768) were evaluated with Octet Red96 at 25° C. These antibodies were captured on anti-Human Fc (AHC) biosensors at a concentration of 10 μg/mL. Loaded biosensors were then dipped into a dilution of antigen (human IL-17A (R&D Systems), 500 nM start, 1:3 down, 7 points). Kinetic constants were calculated using a monovalent (1:1) model. In FIG. 2A, Figure I, II, III and IV show the results of PP10759, PP10760, PP10761 and PP10762, respectively. In FIG. 2B, Figure I, II, III and IV show the results of PP10763, PP10764, PP10765 and PP10766, respectively. In FIG. 2B, Figure I and II show the results of PP10767 and PP10768, respectively. It can be seen that the antibodies (i.e. PP10759-PP10768) bind to IL-17A with high affinity. […] Secukinuma is a human IgG1κ monoclonal antibody that binds to IL-17A made by Novartis.

human IL-17A [3] = target: T2, human IL-17A; assay: blocking ELISA, IL-17RA coated; antibody 1 ug/ml pre-mixed with human IL-17A 0.1 ug/ml; bound IL-17A detected
Procedure: (§1) Recombinant human IL-17RA or recombinant human IL-17RC (1 μg/ml) were coated on the plate, overnight at 4° C. in the dark and then blocked with 2% BSA for 1 hour at room temperature to reduce non-specific binding. The antibodies PP10759-PP10768 (1 μg/ml) pre-mixed with human IL-17A (0.1 μg/ml final concentration) were added to the ELISA wells for 1 hour at room temperature. The plate was washed with PBS for three times, and then incubated with anti-IL17A polyclonal Ab-biotin (R&D Systems) for 1 hour followed by SAV-HRP. The plate was washed for three times with PBS. TMB, the HRP substrate, was added to each well for color development for 5 minutes at room temperature. Equal amount of 0.1N HCl stop solution was added to each well to terminate the reaction. Raw OD₄₅₀ data was collected by POLARstar Omega from BMG Labtech.
(§2) It can be seen that the antibodies PP10759-PP10768 can effectively block the interaction between IL-17A and IL-17RA as well as IL-17A and IL-17RC.

human IL-17A [4] = target: T2, human IL-17A; assay: blocking ELISA, IL-17RC coated; antibody 1 ug/ml pre-mixed with human IL-17A 0.1 ug/ml; bound IL-17A detected
Procedure: as §1, §2

Binder	binding result (mouse IL-17A)	EC50 (human IL-17A [1])	Kd (human IL-17A [2])	koff (human IL-17A [2])	kon (human IL-17A [2])	Blocking % (human IL-17A [3])	OD450 (human IL-17A [3])	Blocking % (human IL-17A [4])	OD450 (human IL-17A [4])
PP10759 (antibody, human IgG4 S228P, kappa, V domains shown, expressed in HEK293; also called chimeric antibody PP10759; chimeric parental antibody) VH: EVQLVESGGGLVQPGGSLKLSCVASGFTFSTYGMSWVRQTPDKRLELVAIINHNGGSTFYPDSVKGRFTVSRDNAKNTLHLQMSSLKSEDTAMYYCARDPRHDGYFFDYWGQGTTLTVSS VL: DIQMTQSSPSFSVSLGDRVTITCKASEDIYDRLAWYQQKPGNAPRLLISGATSLETGIPSRFSGSRSGKDYTLDINSLQTEDAATYYCQQYWSVPWTFGGGTKLEIKR	no binding	5.83 ng/mL	1.1 nM	0.00053 s⁻¹	480000 M⁻¹ s⁻¹	99.5%	0.0872 OD450	95.2%	0.0888 OD450
PP10761 (antibody, human IgG4 S228P, kappa, V domains shown, Humanized, human IgG4/kappa; also called VH6665/VL6666) VH: EVQLVESGGGLVQPGGSLRLSCAASGFTFSTYGMSWVRQAPGKGLELVSIINHNGGSTFYPDSVKGRFTISRDNSKNTLYLQMNSLRAEDTAVYYCARDPRHDGYFFDYWGQGTLVTVSS VL: DIQMTQSPSSLSASVGDRVTITCQASEDIYDRLAWYQQKPGKAPKLLISGATSLETGVPSRFSGSGSGKDYTFTISSLQPEDIATYYCQQYWSVPWTFGGGTKVEIKR	no binding	8.72 ng/mL	< 0.001 nM	< 1e-07 s⁻¹	400000 M⁻¹ s⁻¹	99.7%	0.0851 OD450	99.8%	0.0688 OD450
PP10760 (antibody, human IgG4 S228P, kappa, V domains shown, Humanized, human IgG4/kappa; also called VH6665/VL6665) VH: EVQLVESGGGLVQPGGSLRLSCAASGFTFSTYGMSWVRQAPGKGLELVSIINHNGGSTFYPDSVKGRFTISRDNSKNTLYLQMNSLRAEDTAVYYCARDPRHDGYFFDYWGQGTLVTVSS VL: DIQMTQSPSSLSASVGDRVTITCQASEDIYDRLAWYQQKPGKAPKLLISGATSLETGVPSRFSGSGSGTDYTFTISSLQPEDIATYYCQQYWSVPWTFGGGTKVEIKR	no binding	9.44 ng/mL	0.31 nM	0.00015 s⁻¹	490000 M⁻¹ s⁻¹	97.8%	0.109 OD450	98%	0.0762 OD450
PP10762 (antibody, human IgG4 S228P, kappa, V domains shown, Humanized, human IgG4/kappa; also called VH6665/VL6667) VH: EVQLVESGGGLVQPGGSLRLSCAASGFTFSTYGMSWVRQAPGKGLELVSIINHNGGSTFYPDSVKGRFTISRDNSKNTLYLQMNSLRAEDTAVYYCARDPRHDGYFFDYWGQGTLVTVSS VL: DIQMTQSPSSLSASVGDRVTITCRASEDIYDRLAWYQQKPGKAPNLLVSGATSLESGVPSRFSGSGSGKDYTLTISSLQPEDFATYYCQQYWSVPWTFGGGTKVEIKR	no binding	8.26 ng/mL	< 0.001 nM	< 1e-07 s⁻¹	440000 M⁻¹ s⁻¹	99.6%	0.0846 OD450	99.5%	0.0701 OD450
PP10763 (antibody, human IgG4 S228P, kappa, V domains shown, Humanized, human IgG4/kappa; also called VH6666/VL6665) VH: EVQLVESGGGLVQPGGSLRLSCAASGFTFSTYGMSWVRQAPGKGLELVAIINHNGGSTFYPDSVKGRFTVSRDNSKNTLYLQMNSLRAEDTAVYYCARDPRHDGYFFDYWGQGTLVTVSS VL: DIQMTQSPSSLSASVGDRVTITCQASEDIYDRLAWYQQKPGKAPKLLISGATSLETGVPSRFSGSGSGTDYTFTISSLQPEDIATYYCQQYWSVPWTFGGGTKVEIKR	no binding	7.28 ng/mL	0.36 nM	0.00016 s⁻¹	460000 M⁻¹ s⁻¹	90.9%	0.104 OD450	98.9%	0.0721 OD450
PP10764 (antibody, human IgG4 S228P, kappa, V domains shown, Humanized, human IgG4/kappa; also called VH6666/VL6666) VH: EVQLVESGGGLVQPGGSLRLSCAASGFTFSTYGMSWVRQAPGKGLELVAIINHNGGSTFYPDSVKGRFTVSRDNSKNTLYLQMNSLRAEDTAVYYCARDPRHDGYFFDYWGQGTLVTVSS VL: DIQMTQSPSSLSASVGDRVTITCQASEDIYDRLAWYQQKPGKAPKLLISGATSLETGVPSRFSGSGSGKDYTFTISSLQPEDIATYYCQQYWSVPWTFGGGTKVEIKR	no binding	6.61 ng/mL	< 0.001 nM	< 1e-07 s⁻¹	450000 M⁻¹ s⁻¹	96.5%	0.126 OD450	98.9%	0.0725 OD450
PP10765 (antibody, human IgG4 S228P, kappa, V domains shown, Humanized, human IgG4/kappa; also called VH6666/VL6667) VH: EVQLVESGGGLVQPGGSLRLSCAASGFTFSTYGMSWVRQAPGKGLELVAIINHNGGSTFYPDSVKGRFTVSRDNSKNTLYLQMNSLRAEDTAVYYCARDPRHDGYFFDYWGQGTLVTVSS VL: DIQMTQSPSSLSASVGDRVTITCRASEDIYDRLAWYQQKPGKAPNLLVSGATSLESGVPSRFSGSGSGKDYTLTISSLQPEDFATYYCQQYWSVPWTFGGGTKVEIKR	no binding	7.61 ng/mL	0.13 nM	6.6e-05 s⁻¹	500000 M⁻¹ s⁻¹	89.9%	0.213 OD450	95.2%	0.088 OD450
PP10766 (antibody, human IgG4 S228P, kappa, V domains shown, Humanized, human IgG4/kappa; also called VH6667/VL6665) VH: EVQLVESGGGVVQPGRSLRLSCAASGFTFSTYGMSWVRQAPGKGLELVAIINHNGGSTFYPDSVKGRFTISRDNSKNTLYLQMNSLRAEDTAVYYCARDPRHDGYFFDYWGQGTLVTVSS VL: DIQMTQSPSSLSASVGDRVTITCQASEDIYDRLAWYQQKPGKAPKLLISGATSLETGVPSRFSGSGSGTDYTFTISSLQPEDIATYYCQQYWSVPWTFGGGTKVEIKR	no binding	7.35 ng/mL	< 0.001 nM	< 1e-07 s⁻¹	350000 M⁻¹ s⁻¹	94.9%	0.147 OD450	100%	0.0682 OD450
PP10767 (antibody, human IgG4 S228P, kappa, V domains shown, Humanized, human IgG4/kappa; also called VH6667/VL6666) VH: EVQLVESGGGVVQPGRSLRLSCAASGFTFSTYGMSWVRQAPGKGLELVAIINHNGGSTFYPDSVKGRFTISRDNSKNTLYLQMNSLRAEDTAVYYCARDPRHDGYFFDYWGQGTLVTVSS VL: DIQMTQSPSSLSASVGDRVTITCQASEDIYDRLAWYQQKPGKAPKLLISGATSLETGVPSRFSGSGSGKDYTFTISSLQPEDIATYYCQQYWSVPWTFGGGTKVEIKR	no binding	7.71 ng/mL	< 0.001 nM	< 1e-07 s⁻¹	360000 M⁻¹ s⁻¹	98.1%	0.105 OD450	99.9%	0.0684 OD450
PP10768 (antibody, human IgG4 S228P, kappa, V domains shown, Humanized, human IgG4/kappa; also called VH6667/VL6667) VH: EVQLVESGGGVVQPGRSLRLSCAASGFTFSTYGMSWVRQAPGKGLELVAIINHNGGSTFYPDSVKGRFTISRDNSKNTLYLQMNSLRAEDTAVYYCARDPRHDGYFFDYWGQGTLVTVSS VL: DIQMTQSPSSLSASVGDRVTITCRASEDIYDRLAWYQQKPGKAPNLLVSGATSLESGVPSRFSGSGSGKDYTLTISSLQPEDFATYYCQQYWSVPWTFGGGTKVEIKR	no binding	7.67 ng/mL	< 0.001 nM	< 1e-07 s⁻¹	370000 M⁻¹ s⁻¹	99.5%	0.0869 OD450	99.9%	0.0685 OD450
